The target in the data set is autoantibodies to BRAF purified from the sera of RA patients.

B1: BRAF (protein)
chain: LQKSPGPQRERKSSSSSEDRNRMKTLGRRDSSDDWEIPDGQITVGQRIGSGSFGTVYKGKWHGDVAVKMLNVTAPTPQQLQAFKNEVGVLRKTRHVNILLFMGYSTKPQLAIVTQWCEGSSLYHHLHIIETKFEMIKLIDIARQTAQGMDYLHAKSIIHRDLKSNNIFLHEDLTVKIGDFGLATVKSRWSGSHQFEQLSGSILWMAPEVIRMQDKNPYSFQSDVYAFGIVLYELMTGQLPYSNINNRDQIIFMVGRGYLSPDLSKVRSNCPKAMKRLMAECLKKKRDERPLFPQILASIELLARSLPKIHRSASEPSLNRAGFQTEDFSLYACASPKTPIQAGGYGAFPVH
Consider B1, for which the “phosphorylation of MEK1 by BRAF” value is listed as 80% of anti-BRAF autoantibodies activate phosphorylation of MEK1 by BRAF in vitro.

The values above are taken from patent US20120083423.
